Results reported in the MegaScale stability set (Tsuboyama et al. 2023).

B1: 1ZHC (parent)
chain: HEFRDEISVLKANNPHFDKIFEKHNQLDDDIKTAEQQNASDAEVSHMKKQKLKLKDEIHSMIIEYREK

Variants of: B1
Assay: folding stability dG (cDNA display proteolysis); higher = more stable
Details: PBS, room temperature

Folding stability dG [kcal/mol], by site and new letter:
M61: Y 0.306, F 0.209, L 0.762, A -0.996, W -0.462, C -0.322, I 0.447, H 0.422
I63: L 1.24, M 1.4, S 0.079, C 1.17, Y 0.129, D -0.032, G -0.621, E 0.513, A 0.8, R 0.974, Q 1.12, W -0.039, T 0.157, V 0.61, F 0.401, N 0.622, H 0.728, K 0.899
Y65: S -0.451, H 0.113, W 0.961, A 0.205, M 0.384, I 0.311, C -0.316, V -0.888, F 1.01, Q 0.149, N -0.975, E -0.672, L 0.386
E67: V 0.889, W 0.996, A 1.08, Q 1.18, I 1.07, K 1.08, R 1.3, F 0.916, M 0.866, H 1.04, D 0.551, C 1.33, Y 0.933, L 1.02, N 1.26, T 1.38, S 1.04, G 0.605
I58: M 0.19, F 0.304, R -0.534, H -0.628, L 0.496, V -0.599, C 0.015, W -0.545
E57: M 1.16, R -0.034, T 0.674, Y 0.52, K 0.212, S -0.103, D -0.8, W 0.602, F -0.51, V 0.286, L 0.992, A 0.703, H -0.994, Q 0.719, I 0.87, C 0.959
K68: C 0.745, N 0.792, V 0.338, R 1.2, G 0.495, M 0.491, D -0.648, Y 0.578, E -0.339, L 0.469, A 0.786, F 0.363, T 0.49, W 0.673, H 0.512, S 0.62, I 0.298, Q 0.861
E64: G -0.85, H 0.632, S 0.735, L 0.829, K 0.999, Y 0.484, C 0.731, R 0.669, Q 0.969, M 0.766, A 1.31, F 0.527, D 0.037, W 0.701, I 0.119, T 0.262, V -0.038, N 0.583
H59: M 1.92, K 0.399, L 2.03, A 0.525, R 1.04, V 1.3, D 1.11, W 1.83, N 0.996, S 0.624, T 1.06, I 1.83, F 1.43, E 1.21, Y 1.61, Q 0.83
I62: W -0.3, F 0.011, C -0.713, H -0.624, L 0.874, M 0.117, V 0.282
D56: W 1.39, Q 1.51, R 1.21, S 0.621, L 1.61, Y 1.5, N 1.07, V 1.02, T 0.838, M 1.57
R66: S -0.498, L 1.07, Q 0.328, V 0.348, C 0.384, H 1.53, K 0.404, W 0.163, Y 0.091, F 0.147, M 0.762, I 0.692
S60: V 0.267, T 0.912, Q 1.2, I 0.697, C 1.18
